Data published in publication PMC7442955, “Biochemical and functional characterization of a meiosis-specific Pch2/ORC AAA+ assembly” (Life Science Alliance, 2020).

T1: 6xHis–Hop1 (budding yeast, UniProt P20050 1-605)
T1 construct: Hop1, HORMA domain protein, substrate of Pch2; source: E. coli BL21 RIPL, purified (TALON, heparin, SEC); not shown: 6xHis, N-terminal, kept
T1 sequence (looked up): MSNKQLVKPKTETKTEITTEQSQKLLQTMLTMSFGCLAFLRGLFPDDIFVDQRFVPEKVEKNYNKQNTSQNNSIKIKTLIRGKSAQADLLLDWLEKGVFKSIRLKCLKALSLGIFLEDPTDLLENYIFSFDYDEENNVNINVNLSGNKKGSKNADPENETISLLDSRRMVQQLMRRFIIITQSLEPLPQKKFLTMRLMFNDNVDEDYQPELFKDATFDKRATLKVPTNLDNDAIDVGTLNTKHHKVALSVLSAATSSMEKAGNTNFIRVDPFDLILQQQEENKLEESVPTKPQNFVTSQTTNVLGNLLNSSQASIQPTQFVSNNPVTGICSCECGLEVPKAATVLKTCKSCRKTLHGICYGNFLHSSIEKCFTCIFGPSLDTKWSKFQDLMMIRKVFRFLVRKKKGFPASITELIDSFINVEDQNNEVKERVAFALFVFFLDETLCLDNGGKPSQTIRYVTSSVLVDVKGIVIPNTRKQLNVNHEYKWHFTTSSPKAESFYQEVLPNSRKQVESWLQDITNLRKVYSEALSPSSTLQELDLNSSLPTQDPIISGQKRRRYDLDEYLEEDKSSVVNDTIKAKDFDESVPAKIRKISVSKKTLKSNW

T2: His–Orc1 (subunit of the insect cell–purified ORC) (budding yeast, UniProt P54784 1-914)
T2 construct: Orc1, budding yeast; Stood in the assays as a subunit of m16; source: Tnao38 insect cells, co-expressed with Orc2-6, purified as part of His–ORC
T2 sequence (looked up): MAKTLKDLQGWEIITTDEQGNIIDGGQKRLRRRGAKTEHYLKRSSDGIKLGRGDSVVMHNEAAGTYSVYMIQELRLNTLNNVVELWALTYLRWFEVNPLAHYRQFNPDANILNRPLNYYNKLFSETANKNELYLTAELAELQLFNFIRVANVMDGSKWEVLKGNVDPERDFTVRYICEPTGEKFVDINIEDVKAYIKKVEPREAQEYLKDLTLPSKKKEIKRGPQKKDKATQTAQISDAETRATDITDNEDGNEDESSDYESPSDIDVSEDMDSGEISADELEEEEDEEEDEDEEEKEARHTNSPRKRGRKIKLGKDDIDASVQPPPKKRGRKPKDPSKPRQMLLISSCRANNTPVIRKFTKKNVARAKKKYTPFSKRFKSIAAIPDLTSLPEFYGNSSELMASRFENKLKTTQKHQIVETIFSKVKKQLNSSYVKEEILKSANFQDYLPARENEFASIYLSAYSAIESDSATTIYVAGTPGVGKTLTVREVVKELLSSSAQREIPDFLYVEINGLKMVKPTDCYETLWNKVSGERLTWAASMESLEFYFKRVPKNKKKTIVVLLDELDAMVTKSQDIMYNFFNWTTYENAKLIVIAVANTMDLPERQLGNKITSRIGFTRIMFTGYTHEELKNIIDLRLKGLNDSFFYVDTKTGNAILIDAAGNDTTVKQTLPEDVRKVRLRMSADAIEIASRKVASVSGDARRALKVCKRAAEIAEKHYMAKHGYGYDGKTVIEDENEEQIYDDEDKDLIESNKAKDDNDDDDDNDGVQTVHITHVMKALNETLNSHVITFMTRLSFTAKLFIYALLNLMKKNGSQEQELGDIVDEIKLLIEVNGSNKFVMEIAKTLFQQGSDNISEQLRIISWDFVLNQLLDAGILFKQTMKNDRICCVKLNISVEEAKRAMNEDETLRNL

B1: His–MBP–Pch2 (natural protein, budding yeast, UniProt P38126 1-564, looked up)
chain: MSYIVDLQVRGSSLRVIKCMFREDEQISSLHSGSDSKQNSNKKLGEFLNLLKAVVKRKLESFPKDRLKTSIITGQELMREGQGSIEIKDPPTEAQQHLIRSLAKVLLHQFSSINGKVNTVNEGQDNLFLSLFVKKISIEQQSTSHVSIKLNFHEKINLGQHIDSILDSEETNESDTYHMGSVDEFIIYPFCCLEEQDELKNGSILSTEFDKIDLELDEDDGFEGETLNNCINSVGNFDIPLSKQTLNLVNISYLPGTTFEGQWESLYFGNNIKERLYSYATISLKIARFKQTGDSNQEDITTLITNNKLLLVHGPPGTGKTTLCKALCQKLSVRREFSDGSDTIDTNYKGIIIELSCARIFSKWFGESSKNISIVFKDIEELLKVNEGRGIFICLLIDEVEAIASSRTNLSSRNESTDGIRVVNTLLTQLDRLKKYHNFLALATSNLLDSLDDAFVDRADGVFYVGNPTAEGILHILKVCIEEMITSGIILFHARSTGVKFFNKYQDILRKIAIKCSTVDISGRTIRKLPLMCLSEYFRTFPVDDDEFVLALAMSARKLSAARK
notes: Pch2, budding yeast; from codon-optimized cDNA in a pLIB–His–MBP vector; Apparent hexamer by SEC, with a minor fraction that appears monomeric; also called purified Pch2; full-length Pch2; source: Tnao38 insect cells (baculovirus), purified (TALON, amylose, SEC); not shown: His, N-terminal, kept; MBP, N-terminal, kept

What was measured:
[1] = target: T3, His–ORC (His–Orc1, Orc2-6) purified from insect cells (budding yeast, UniProt P54784 1-914; P32833 1-620; P54790 1-616; P54791 1-529; P50874 1-479; P38826 …, a fraction of Orc6 phosphorylated (double band, collapsed by λ-phosphatase); sites not stated); assay: pull-down; His–MBP–Pch2 (1 μM as hexamer) or fragments (6 μM of 2-144) on amylose beads, 1 μM ORC added, 90 min on ice; 30 mM HEPES pH 7.5, 150 mM NaCl, 10 mM imidazole, 0.1% Tween-20, 10 mM MgCl2; Coomassie staining or Western blot (α-MBP, α-ORC); details: both partners purified
T3 construct: Orc1, budding yeast; Orc2, budding yeast; Orc3, budding yeast; Orc4, budding yeast; Orc5, budding yeast; Orc6, budding yeast; Total size about 414 kD as printed; also called His–Orc1-6; origin recognition complex; source: Tnao38 insect cells coinfected with two baculoviruses, purified (His-tag resin, SEC); copies: + + + + +

[2] = target: B1; assay: cross-linking; XL-MS: 0.75 μM His–MBP–Pch2 with 1.5 μM His–ORC, 30 mM HEPES pH 7.5, 150 mM NaCl, 2 mM TCEP, 90 min at 4°C; 3 mM DSBU, 25°C, 1 h; MeroX, 2% FDR; details: both partners purified
[3] = target: T1, 6xHis–Hop1; assay: pull-down; His–MBP–Pch2 (1 μM, as hexamer) on amylose beads, 6 μM Hop1 added, 90 min on ice; 50 mM Tris pH 7.5, 50 mM NaCl, 10 mM imidazole, 0.1% Tween-20, 1 mM MgCl2; with or without 200 μM ATP or ATPγS; Coomassie staining; details: both partners purified
[4] = target: T4, ORC (Orc1-6, with Orc1 carrying a CBP tag) purified from budding yeast (budding yeast, UniProt P54784 1-914; P32833 1-620; P54790 1-616; P54791 1-529; P50874 1-479; P38826 …); assay: pull-down; ORC from budding yeast bound to calmodulin beads, His–MBP–Pch2 added for 1 h on ice; 30 mM HEPES pH 7.5, 200 mM NaCl, 2 mM CaCl2; with or without MgCl2 and ADP, ATP or ATP analogs; Coomassie staining; details: both partners purified
T4 construct: Orc1, budding yeast; Orc2, budding yeast; Orc3, budding yeast; Orc4, budding yeast; Orc5, budding yeast; Orc6, budding yeast; also called budding yeast ORC (CBP–Orc1); budding yeast–purified ORC; source: purified from α-factor–arrested vegetative budding yeast cells (yGV3358), concentrated on calmodulin beads; copies: + + + + +

[5] = target: T5, dephosphorylated His–ORC (λ-phosphatase treated) (budding yeast, UniProt P54784 1-914; P32833 1-620; P54790 1-616; P54791 1-529; P50874 1-479; P38826 …); assay: pull-down; His–MBP–Pch2 (1 μM as hexamer) or fragments (6 μM of 2-144) on amylose beads, 1 μM ORC added, 90 min on ice; 30 mM HEPES pH 7.5, 150 mM NaCl, 10 mM imidazole, 0.1% Tween-20, 10 mM MgCl2; Coomassie staining or Western blot (α-MBP, α-ORC); details: both partners purified
T5 construct: Orc1, budding yeast; as in m16; Orc2, budding yeast; Orc3, budding yeast; Orc4, budding yeast; Orc5, budding yeast; Orc6, budding yeast; as in m16, dephosphorylated (single band); also called dephosphorylated ORC; source: Tnao38 insect cells, purified, then treated with λ-phosphatase at 4°C overnight; copies: + + + + +

[6] = target: T2, His–Orc1 (subunit of the insect …); assay: cross-linking; XL-MS: 0.75 μM His–MBP–Pch2 with 1.5 μM His–ORC, 30 mM HEPES pH 7.5, 150 mM NaCl, 2 mM TCEP, 90 min at 4°C; 3 mM DSBU, 25°C, 1 h; MeroX, 2% FDR; details: both partners purified
[7] = target: the molecule itself; assay: SEC; single purified proteins: His–MBP–Pch2 (2 μM), His–MBP–Pch2-243-564 (2 μM), His–MBP–Pch2-2-144 (6 μM; Superdex 200 5/150 GL); 30 mM HEPES pH 7.5, 150 mM NaCl, 3% glycerol, 2 mM TCEP, 1 mM MgCl2

T3 sequence (P32833 whole entry, chain 2 of 4, the tested form may be a part): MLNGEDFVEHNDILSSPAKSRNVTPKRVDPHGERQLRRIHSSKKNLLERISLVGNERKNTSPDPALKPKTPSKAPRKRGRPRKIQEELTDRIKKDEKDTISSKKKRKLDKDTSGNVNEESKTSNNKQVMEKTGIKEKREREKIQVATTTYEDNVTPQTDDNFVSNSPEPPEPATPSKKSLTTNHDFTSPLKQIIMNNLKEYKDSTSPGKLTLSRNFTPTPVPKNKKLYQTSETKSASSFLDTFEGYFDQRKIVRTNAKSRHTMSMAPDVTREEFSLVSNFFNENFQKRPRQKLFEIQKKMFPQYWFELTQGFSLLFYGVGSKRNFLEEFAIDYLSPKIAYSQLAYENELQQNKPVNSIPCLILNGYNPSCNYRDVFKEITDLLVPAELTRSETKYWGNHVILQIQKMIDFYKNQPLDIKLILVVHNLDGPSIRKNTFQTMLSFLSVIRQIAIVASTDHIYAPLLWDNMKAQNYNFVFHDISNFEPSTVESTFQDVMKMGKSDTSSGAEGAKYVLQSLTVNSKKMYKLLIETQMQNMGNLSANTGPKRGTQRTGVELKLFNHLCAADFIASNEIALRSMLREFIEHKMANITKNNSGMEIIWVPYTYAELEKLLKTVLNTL
T3 sequence (P54790 whole entry, chain 3 of 4, the tested form may be a part): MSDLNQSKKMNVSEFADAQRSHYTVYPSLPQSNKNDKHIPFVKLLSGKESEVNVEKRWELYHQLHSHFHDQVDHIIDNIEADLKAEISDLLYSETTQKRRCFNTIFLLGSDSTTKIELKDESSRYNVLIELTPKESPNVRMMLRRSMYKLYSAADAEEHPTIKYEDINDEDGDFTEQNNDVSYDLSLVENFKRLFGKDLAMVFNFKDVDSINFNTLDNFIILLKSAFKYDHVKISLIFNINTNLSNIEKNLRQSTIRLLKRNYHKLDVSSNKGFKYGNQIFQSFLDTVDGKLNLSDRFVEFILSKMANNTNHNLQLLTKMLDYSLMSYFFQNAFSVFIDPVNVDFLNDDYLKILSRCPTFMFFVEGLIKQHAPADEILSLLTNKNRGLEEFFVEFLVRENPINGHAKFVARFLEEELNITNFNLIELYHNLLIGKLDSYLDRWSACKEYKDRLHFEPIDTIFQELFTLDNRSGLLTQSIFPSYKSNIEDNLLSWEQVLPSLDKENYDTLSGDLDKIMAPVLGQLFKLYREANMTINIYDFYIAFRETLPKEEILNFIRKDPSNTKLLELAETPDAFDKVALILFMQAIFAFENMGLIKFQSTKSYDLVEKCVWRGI
T3 sequence (P54791 whole entry, chain 4 of 4, the tested form may be a part): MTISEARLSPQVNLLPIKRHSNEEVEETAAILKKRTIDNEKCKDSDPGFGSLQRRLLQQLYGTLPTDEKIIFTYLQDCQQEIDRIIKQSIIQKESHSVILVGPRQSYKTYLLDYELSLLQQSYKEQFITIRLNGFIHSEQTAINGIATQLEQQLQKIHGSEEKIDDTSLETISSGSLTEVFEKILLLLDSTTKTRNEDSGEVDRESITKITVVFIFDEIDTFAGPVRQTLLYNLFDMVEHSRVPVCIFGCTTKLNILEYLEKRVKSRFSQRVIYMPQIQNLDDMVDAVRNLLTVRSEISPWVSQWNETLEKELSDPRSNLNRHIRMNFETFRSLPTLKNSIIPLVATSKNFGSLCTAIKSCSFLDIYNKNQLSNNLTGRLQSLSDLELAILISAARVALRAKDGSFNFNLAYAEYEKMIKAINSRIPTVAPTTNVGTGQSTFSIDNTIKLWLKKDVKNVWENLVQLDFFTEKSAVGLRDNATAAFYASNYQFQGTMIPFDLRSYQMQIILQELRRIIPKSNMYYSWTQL
T3 sequence (P38826 whole entry, chain 6 of 4, the tested form may be a part): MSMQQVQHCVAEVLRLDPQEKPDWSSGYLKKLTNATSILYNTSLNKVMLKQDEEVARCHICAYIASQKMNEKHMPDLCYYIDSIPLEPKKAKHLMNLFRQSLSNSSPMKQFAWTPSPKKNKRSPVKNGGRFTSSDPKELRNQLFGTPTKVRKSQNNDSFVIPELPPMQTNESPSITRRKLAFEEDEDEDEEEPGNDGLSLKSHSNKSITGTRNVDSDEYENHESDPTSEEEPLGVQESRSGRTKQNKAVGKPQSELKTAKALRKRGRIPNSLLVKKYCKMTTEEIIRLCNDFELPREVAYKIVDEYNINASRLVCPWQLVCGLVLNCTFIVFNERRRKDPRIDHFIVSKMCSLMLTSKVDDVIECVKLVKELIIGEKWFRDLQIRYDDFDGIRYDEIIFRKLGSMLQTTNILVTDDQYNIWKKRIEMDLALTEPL
T5 sequence (P32833 whole entry, chain 2 of 4, the tested form may be a part): as the sequence (P32833 whole entry, chain 2 of 4, the tested form may be a part) above
T5 sequence (P54790 whole entry, chain 3 of 4, the tested form may be a part): as the sequence (P54790 whole entry, chain 3 of 4, the tested form may be a part) above
T5 sequence (P54791 whole entry, chain 4 of 4, the tested form may be a part): as the sequence (P54791 whole entry, chain 4 of 4, the tested form may be a part) above
T5 sequence (P38826 whole entry, chain 6 of 4, the tested form may be a part): as the sequence (P38826 whole entry, chain 6 of 4, the tested form may be a part) above
T4 sequence (P32833 whole entry, chain 2 of 4): as the sequence (P32833 whole entry, chain 2 of 4, the tested form may be a part) above
T4 sequence (P54790 whole entry, chain 3 of 4): as the sequence (P54790 whole entry, chain 3 of 4, the tested form may be a part) above
T4 sequence (P54791 whole entry, chain 4 of 4): as the sequence (P54791 whole entry, chain 4 of 4, the tested form may be a part) above
T4 sequence (P38826 whole entry, chain 6 of 4): as the sequence (P38826 whole entry, chain 6 of 4, the tested form may be a part) above

Binder | binding result [1] | binding result [2] | binding result [3] | binding result [4] | binding result [5] | binding result [6] | stoichiometry N [7]
His–MBP–Pch2-2-144 (domain or fragment, budding yeast, UniProt P38126 2-144, looked up, Pch2, budding yeast, part of the NH2-terminal domain; Monomer by SEC; also called minimal NH2-terminal fragment of Pch2; source: Tnao38 insect cells (baculovirus), purified (TALON, amylose, SEC); not shown: His, N-terminal, kept; MBP, N-terminal, kept) SYIVDLQVRGSSLRVIKCMFREDEQISSLHSGSDSKQNSNKKLGEFLNLLKAVVKRKLESFPKDRLKTSIITGQELMREGQGSIEIKDPPTEAQQHLIRSLAKVLLHQFSSINGKVNTVNEGQDNLFLSLFVKKISIEQQSTS | binds | – | – | – | – | – | –
Orc5 (subunit of the insect cell–purified ORC) (natural protein, budding yeast, UniProt P50874 1-479, looked up, Orc5, budding yeast; Stood in the assays as a subunit of m16; source: Tnao38 insect cells, co-expressed, purified as part of His–ORC) MNVTTPEVAFREYQTNCLASYISADPDITPSNLILQGYSGTGKTYTLKKYFNANPNLHAVWLEPVELVSWKPLLQAIARTVQYKLKTLYPNIPTTDYDPLQVEEPFLLVKTLHNIFVQYESLQEKTCLFLILDGFDSLQDLDAALFNKYIKLNELLPKDSKINIKFIYTMLETSFLQRYSTHCIPTVMFPRYNVDEVSTILVMSRCGELMEDSCLRKRIIEEQITDCTDDQFQNVAANFIHLIVQAFHSYTGNDIFALNDLIDFKWPKYVSRITKENIFEPLALYKSAIKLFLSTDDNLSENGQGESAITTNRDDLENSQTYDLSIISKYLLIASYICSYLEPRYDASIFSRKTRIIQGRAAYGRRKKKEVNPRYLQPSLFAIERLLAIFQAIFPIQGKAESGSLSALREESLMKANIEVFQNLSELHTLKLIATTMNKNIDYLSPKVRWKVNVPWEIIKEISESVHFNISDYFSDIHE | – | binds | – | – | – | – | –
B1 | binds | – | binds | binds | binds | binds | 6
